Data as given in the nanobody polyreactivity screen of Harvey et al. (2022).

Test: yeast display, Sf9 membrane polyspecificity reagent, FACS + sequencing; frameworks hold sequencing errors
In short: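 Polyreactivity labels are assigned by the sorting gate from which each nanobody was recovered. The gates were low and high (top ~1%), set on anti-HA fluorescence for expression and streptavidin fluorescence for reagent binding. Before sorting, galactose-induced (36–48 hours) yeast display cells were stained for 1 hour at 4 °C with 10% biotinylated, detergent-solubilized Sf9 membrane reagent.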

Sequence	polyreactivity (PSR sort gate)
QVQLVESGGGLVQAGGSLRLSCAATGRTFSGNAMGWYRQAPAKERELVAAISRSGGTTYYADSVKGRFTISRDNAKNPVYLQMNSLKPEDTAVYYCNRGWANWLGPDDYWGQGNQVTVSS	high polyreactivity
QVQLVESGGGLVQAGGSLRLSCAASGFIFVPYAMGWYRQAPGKEREFVAAIRCSGGRTYYADSVKGRFSISRDYAKNTVYLQMNSLKPDDTAVYYCAADTWQDRVRKTSFGYDYWGQGTQVTVSS	high polyreactivity
QVQLVESGGGLVQAGGSLRLSCAASGFTFWGNAMGWYRPAPGKERELVAAITDTGSTNYADSVKGRFTISRDNAKNTVYLQMNSLKPEDTAVYYCAKDKAYYDWGQTNGYWGQGTQVTVSS	low polyreactivity
QVQLVESGGGLVQAGGSLRLSCAASGRTFFYNAMGWYRQAPGKERELVAAISKNGGNTYYADSVKGRFTISRDNAKNTVYLQMNSLKPEDTAVYYCAARQSRTGPDRNDYWGQGTQVTVSS	high polyreactivity
QVQLVESRGGLVQAGGSLRLICAASGFILDTSAMGWYRQAPGKERALVAAISASGSSTYYADSVKGRFTISRDNAKNTLYLQMNSLKPEDTAVNYCAAKDTGYGYGFPRLDYWGQGTQVNVSS	low polyreactivity
QVQLVESGGGLVQAGGSLRLSCAASGNIYDPYAMGWYRQAPGKERELVARISSGGRTDYADSVKGRFTISRDNAKNTVYLQMNSLKPEDTAVYYCAADVLQAYYLTLFGYRYYLVDYWGQGTQVTVSS	low polyreactivity
QVQLVESGGGLVQAGGSLRISCAASVSTFDINTMGWYRQAPGKEREFVAAITDSDDSTYYADSVKGRFTISRDNAKNTVYLQMNSLKPEDSAVYYCAADRSHAYYRKNRVDYWGQGTQVTVSS	low polyreactivity
QVQLVESGGGLVQAGGSLRLSCAASGFTFSYYDMGWYRQAPGTERELVAAISWSGGSTYYADSVKGRFTISRDNAKITVYLQMNSLKPEDTAVYYCNTDTDTTSSGYVYWGQGTQVTVSS	low polyreactivity
QVQLVESGGGLVQAGGSLRLSCAASGRTFGTYAMGWYRQAPGKQRELVAAISSGGSTYADSVKGRFTISRDNAKNTVYLQMNSLKPEDTAVYYCNADYRARNYHYYPRRFKYYYWGQGTQVTVSS	high polyreactivity
QVQLVESGGGLVQAGGSLRLSCAASGSTFGTNAMGWYRQAPGKERELVAAITYSGGRTYYADSVKGRFTISRDNAKNTVYLQMNSLKPEDTAVYYCAATFGFFYYQYEYWGLGTQVTVSS	low polyreactivity
QVQLEESGGGLVQAGGSLRLSCAASGLTFPSNAMGWYRQATGKERALVASISKRGGRTYYADSVKGRFTISRDNAKHTVYLQMNSLKPEDTAVYDCATPYAYPGSVQYAGYNYWGQGTQVTVSS	high polyreactivity
QVQLVESGGGLVQAGGSLRLSCAASGITFYGYAMGWYRQAPGQERELVAAISSRGGSTYYADSVKGRFTISRDNAKNTVYLQMNSLKPEDTAVYNCAAVYYTGEYYYWGQGTQVTVSS	high polyreactivity
QVQLVESGGGLVQAAGSLRLSCAASGFIFHYNAMGWYRKATGKERELDASITASASRTYYADSVKGRFTISLDNAKNTVYLQMNSLKPEDTAVYYCAKAIRITITRYRFGYWVQGTQVTVSS	high polyreactivity
QVHLVESGGGLVQAGGSLRLSCAASGSTFETNAMGWYRQSPGKERELVAAIRWSTGNTYYADSVKGRFTISRDNAKNTVYLQMNSLKPEDTAVYYCAAYKGKHYKEGYWGQGTQVTVSS	low polyreactivity
QVQLVESGGGLVQAGGSLRLSCAASGLIFVQNAMGWYRQAPGKERELVAAISSRGTNTYYADSVKGRFTISRDNAKNTVYLQMNSLKPEDTAVYYCAKPLKTPRPNYDYWGQGTQVTVSS	low polyreactivity
QVQLVESGGGLVQAGGSLRLSCAASGSTFGKYAMGWYRQAPGKERELVAAISKSGGSTYYADSVKGRFTISRDNAKNTVYLQMNSLKPEDTAVYYCNAYPHAYTGSTREGDYWGQGTQVTVSS	high polyreactivity

Sequence	polyreactivity (PSR sort gate)
QVQLVESGGGLVQAGGSLRLSCAASGFTFRYYAMGWYRQAPGKERELVASTYYADYVKGRFTISRDNAKNTVYLQMNSLKPEDTAVYYCNVDGTSSSPFVQKHKEMDYWGQGTQVTVSS	low polyreactivity
QVQLVESGGGLVQAGGSLRLSCAASGSTFDIYAMGWYRQAPGKESELVAAISGSSTRTYYADSVKGRFTISRDNAKYTVYLQMNSLKPEDTPGYYCVGRFYERDYWGQGTQVTVSS	high polyreactivity
QVHLVESGGGLVQAGGSLRLSCAASGSIFYYYAMGWYRQAPGKEREFVAAINWSGGITYYADSVKGRFTISRDNAKNTVYLQMNSLKPEDTAVFYCAAPVRGYSYGKYDYWGQGTQVTVSS	high polyreactivity
QVQLVESGGGLVQAGGSHRLSCAASGITFTGYGMGWYRQAPGKERELVAAIRLRTGSTYFADSVKGRFTISRDNAKNTVYLQMNSLKPEDTAVYYCNKVTVYRFRGVSWGQGTQVTVSS	high polyreactivity
QVQLVESGGGLVQAGGSLRLSCAASGSIFDPNAMGWYRQAPGKERELVAVITWSSSSTYYADSVKGRFTISRDNAKNTVYLQMNSLKPEDTAVYYCAAVVQGTTVWWGYDYWGQGTLVTVSS	low polyreactivity
QVQLVESRGGLVQAARSLRLSFAASGSIFSSNAMGWYRQAPGKERELVAAITSVGSTTYADSVKGRFTISRDNAKNTVYLQMNSLKPEDTAVYYFAADPVYRYYHGWTYVDYVYWGQGTQVTVSS	low polyreactivity
QVQLVESGGGLVQAGGSLRLSCAASGFISSHYAMGWYRQAPGKERELVAAISTNGGSTYYADSVKGRFTISRDNAKNTVYLQMNSLKPEDTAVYYCAAEFAVSFYWSWLGQDYNYWGQGTQVTVSS	high polyreactivity
QVQLVESGGGLVQAGGSLRLSCAASGSTFIYYTMVWYRQAPGKERELVAAIPSSGGSTYYADSVKGRFTISRDNAKNTVYLQMNSLKPEDNAVYYCAADGTYIKFAKLYRSYDYWGQVTQVTVSS	low polyreactivity
QVQLVESGGGLVQAGGSLRLSCAASGITFSGNAMGWYIQARGKERELVAGISRRGGSTYYADSVKGSFTISRDNAKNTVYLQINCLKPEATAVYYCADGRDRYRGVAYDYWGQGTQVTVSS	high polyreactivity
QVQLVESGGGLVQAGGSLRLSSAASGSISADYVMGWYRQAPGKERELVAAISVSAGTTYYADSVKGRFTISRDNAKNTVYLQMNSLKPEDTAVYYCAATDSYYWLYYYGYSPGNDYWGQGTQVTVSS	low polyreactivity
QVQLVESGGGVVQAGGSLRLSCAASGRTFSYYAMGWYRQSPGKERELVATISYSTGNTNYADSVKGRFTISRDNAKNTVYLQMNSLKPEDTAVYYCAADFSPFVGETYWKYDYWGQGTQVTVSS	low polyreactivity
QVQLVESGGGLVKAGGILRLSCAASGFNFSSYAMGWYIPAPGKERELVAAISGSGGTTYYADSVKGRFTISRDNAKNTVYLQLNSLKPEDTAVYYCATRLGLVITKYGYDYWGQGTQVTVSS	high polyreactivity
QVQLVESGGGLVQARGSLRLSCAASGSIFYNYGMGWYRQAPGKERELVAAIRASGDSTYYADSVKGRFTISRDNAKNTVYLQMNSLKPEDTAVYYCAARPNQSYYGLYYYWGQGTQVTVSS	low polyreactivity
QVQLVESGGRLVQAGGTLRLSCAASGNIFFVYDMGWYRQPPGKESELVAAISWSGGSTYADSVKGRFTISRDNAKNTVYLQMNSLKPEDTAVYYCAADVAYVEYDYWGQGTQVTVSS	low polyreactivity
QVQLVESGGGLVQAGGSLRLLCADSGFTFEYYAMGWYRQAPGKERELVAAITSGGSTNYADSVKGRFTISRDNAKNTVYVQMNSLKPEDTAVYYCAAGYWYRYAALRYDHWGQGTQVTVSS	low polyreactivity
